{
  "source": "paper PMC3749868",
  "about": "“Proteolytic processing of QSOX1A ensures efficient secretion of a potent disulfide catalyst” (Biochemical Journal, 2013)",
  "key": {"[1]": {"target": "QSOX1B–V5 (quiescin sulfhydryl oxidase 1, splice variant B, V5-tagged) (human) (UniProt O00391)", "experiment": "SEC; protein secreted for 3 h into serum-free medium, concentrated and buffer-exchanged (gel-filtration buffer with 0.03% Triton X-100 by the legend, 0.02% DDM by the methods), S200 PC3.2/30 column; fractions analysed by Western blot"}, "[2]": {"target": "cleaved QSOX1A (soluble product of the proteolytic processing of QSOX1A–V5, without the TM domain and the V5 tag) (human)", "experiment": "SEC; protein secreted for 3 h into serum-free medium, concentrated and buffer-exchanged (gel-filtration buffer with 0.03% Triton X-100 by the legend, 0.02% DDM by the methods), S200 PC3.2/30 column; fractions analysed by Western blot"}, "[3]": {"target": "cleaved QSOX1A (soluble product of the proteolytic processing of QSOX1A–V5, without the TM domain and the V5 tag) (human)", "experiment": "SEC; cell lysate (2% DDM) of the QSOX1A–V5 cell line, Sephadex 200 PC3.2/30 column, 50 mM Tris/HCl pH 7.5, 150 mM NaCl, 1 mM EDTA, 0.02% DDM; fractions analysed by Western blot (anti-V5, anti-QSOX1A)"}, "[4]": {"target": "the molecule itself", "experiment": "cross-linking; thiol-specific cross-linker BMH, 0.1 mM, added to intact cells in KHM buffer, 30 min on ice, stopped with 20 mM DTT; lysates analysed by Western blot or by immunoisolation (anti-V5–agarose, then anti-QSOX1A) of radiolabelled proteins; MS of the cross-linked product (results not shown)"}},
  "data": [
    {"molecule": "QSOX1B–V5 (quiescin sulfhydryl oxidase 1, splice variant B, V5-tagged) (from UniProt O00391-2 30-604) (enzyme)", "values": [
      {"measurement": "stoichiometry N", "setting": "[1]", "result": 2}
    ]},
    {"molecule": "cleaved QSOX1A (soluble product of the proteolytic processing of QSOX1A–V5, without the TM domain and the V5 tag) (domain or fragment)", "values": [
      {"measurement": "stoichiometry N", "setting": "[2]", "result": 2},
      {"measurement": "stoichiometry N", "setting": "[3]", "result": 2}
    ]},
    {"molecule": "QSOX1A–V5 (quiescin sulfhydryl oxidase 1, splice variant A, V5-tagged, uncleaved) (enzyme, human, UniProt O00391 30-747, looked up, human QSOX1A, the long splice variant of QSOX1 with 143 additional C-terminal amino acids including the single-pass TM domain; uncleaved (full-length) form; Membrane-integrated, V5 on the cytosolic side; also called V5-tagged QSOX1A; uncleaved QSOX1A–V5; source: HT1080, stably overexpressing (cross-linking in cells, SEC of lysate); HT1080, transiently co-transfected, in lysate (co-assembly); not …) APRSALYSPSDPLTLLQADTVRGAVLGSRSAWAVEFFASWCGHCIAFAPTWKALAEDVKAWRPALYLAALDCAEETNSAVCRDFNIPGFPTVRFFKAFTKNGSGAVFPVAGADVQTLRERLIDALESHHDTWPPACPPLEPAKLEEIDGFFARNNEEYLALIFEKGGSYLGREVALDLSQHKGVAVRRVLNTEANVVRKFGVTDFPSCYLLFRNGSVSRVPVLMESRSFYTAYLQRLSGLTREAAQTTVAPTTANKIAPTVWKLADRSKIYMADLESALHYILRIEVGRFPVLEGQRLVALKKFVAVLAKYFPGRPLVQNFLHSVNEWLKRQKRNKIPYSFFKTALDDRKEGAVLAKKVNWIGCQGSEPHFRGFPCSLWVLFHFLTVQAARQNVDHSQEAAKAKEVLPAIRGYVHYFFGCRDCASHFEQMAAASMHRVGSPNAAVLWLWSSHNRVNARLAGAPSEDPQFPKVQWPPRELCSACHNERLDVPVWDVEATLNFLKAHFSPSNIILDFPAAGSAARRDVQNVAAAPELAMGALELESRNSTLDPGKPEMMKSPTNTTPHVPAEGPEASRPPKLHPGLRAAPGQEPPEHMAELQRNEQEQPLGQWHLSKRDTGAALLAESRAEKNRLWGPLEVRRVGRSSKQLVDIPEGQLEARAGRGRGQWLQVLGGGFSYLDISLCVGLYSLSFMGLLAMYTYFQAKIRALKGHAGHPAA", "values": [
      {"measurement": "stoichiometry N", "setting": "[4]", "result": 2}
    ]}
  ]
}
